The text below walks through data of article PMC12705745.

As usually defined, the stoichiometry N is the number of molecules, sites or subunits per partner or assembly.

In this assay the target is T1, recombinant human C-reactive protein (human), P02741.
T1 chain: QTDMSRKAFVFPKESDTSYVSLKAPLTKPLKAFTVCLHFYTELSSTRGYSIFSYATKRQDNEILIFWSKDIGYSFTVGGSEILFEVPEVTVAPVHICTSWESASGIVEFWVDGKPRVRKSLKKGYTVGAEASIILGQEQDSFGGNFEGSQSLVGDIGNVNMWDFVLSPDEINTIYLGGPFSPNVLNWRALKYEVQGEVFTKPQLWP
Put plainly: cryo-EM structure; hCRP 6 mg/ml incubated with 4.5 mM CPS23F on ice for ~1 h, 0.02% Tween-20; C5 symmetry applied during reconstruction; 2.78 Å. As to conditions: remark: other sources report otherwise.

B1: recombinant human C-reactive protein, P02741-1 19-224 (natural protein)
chain: T1 chain
Turning to B1, the stoichiometry N worked out at 5.
